According to the Human Domainome abundance scans (Beltran et al. 2025):
± gives the uncertainty stated by the source.

B1: POU domain, class 5, transcription factor 1, residues 134 to 212; numbered along this chain, Q01860 (parent)
chain: EESQDIKALQKELEQFAKLLKQKRITLGYTQADVGLTLGVLFGKVFSQTTICRFEALQLSFKNMCKLRPLLQKWVEEAD

Variants of: B1
Assay: abundance fitness (aPCA) (normalised: wild type 0, dead -1); higher = more abundant; growth selection in yeast, the domain comes from the species named
Conditions: Homo sapiens

T30R and T30V are within error of each other in abundance fitness: -0.249 ± 0.078 for the first, -0.392 ± 0.12 for the second.

T30Q and S60R are within error of each other in abundance fitness: -0.664 ± 0.3 for the first, -0.556 ± 0.14 for the second.

Going from Y29L to Y29W, the abundance fitness falls from -0.055 ± 0.094 to -0.472 ± 0.18.

Going from G35L to G35A, the abundance fitness rises from -0.769 ± 0.46 to 0.266 ± 0.092.

Compared with G35S, G35V is lower in abundance fitness: 0.134 ± 0.14 for the first, -0.743 ± 0.3 for the second.

Compared with G35Q, L67S is lower in abundance fitness: -0.039 ± 0.25 for the first, -0.608 ± 0.22 for the second.

Going from L67E to L67N, the abundance fitness rises from -0.289 ± 0.17 to 0.553 ± 0.28.

L67A and L67C are within error of each other in abundance fitness: -0.612 ± 0.16 for the first, -0.363 ± 0.27 for the second.

Compared with T50L, T50V is higher in abundance fitness: -0.626 ± 0.32 for the first, 0.015 ± 0.087 for the second.

First: T50R
Second: T49S
The abundance fitness of the first is lower: -0.756 ± 0.19 for the first, -0.072 ± 0.11 for the second.

First: K66M
Second: K66P
The abundance fitness of the first is higher: 0.113 ± 0.12 for the first, -0.51 ± 0.27 for the second.

K66F and D5P are within error of each other in abundance fitness: 0.04 ± 0.28 for the first, 0.062 ± 0.42 for the second.

D5T and L36C are within error of each other in abundance fitness: -0.141 ± 0.4 for the first, 0.111 ± 0.16 for the second.

L36I and V75E are within error of each other in abundance fitness: 0.311 ± 0.2 for the first, -0.353 ± 0.48 for the second.

Compared with V75A, C52D is higher in abundance fitness: -0.815 ± 0.32 for the first, 0.203 ± 0.3 for the second.

First: K18E
Second: K18L
The abundance fitness of the first is lower: -0.415 ± 0.2 for the first, -0.091 ± 0.11 for the second.

K18H and E76R are within error of each other in abundance fitness: -0.523 ± 0.48 for the first, -0.315 ± 0.095 for the second.

E76L and Q15K are within error of each other in abundance fitness: -0.368 ± 0.15 for the first, -0.631 ± 0.43 for the second.

Q15G and Q15D are within error of each other in abundance fitness: 0.008 ± 0.086 for the first, 0.089 ± 0.18 for the second.

Q15M and Q15S are within error of each other in abundance fitness: -0.184 ± 0.17 for the first, -0.094 ± 0.12 for the second.

F54W and F54R are within error of each other in abundance fitness: -0.797 ± 0.22 for the first, -0.621 ± 0.12 for the second.

F54Q and F16R are within error of each other in abundance fitness: -0.891 ± 0.47 for the first, -0.394 ± 0.15 for the second.

E77H and E77I are within error of each other in abundance fitness: 0.144 ± 0.35 for the first, -0.079 ± 0.23 for the second.

E77T and E77Y are within error of each other in abundance fitness: -0.129 ± 0.19 for the first, 0.096 ± 0.18 for the second.

E77R and E14Q are within error of each other in abundance fitness: -0.108 ± 0.078 for the first, -0.05 ± 0.14 for the second.

E14L and E14M are within error of each other in abundance fitness: -0.168 ± 0.11 for the first, -0.307 ± 0.22 for the second.

E14A and E14F are within error of each other in abundance fitness: 0.143 ± 0.085 for the first, -0.056 ± 0.14 for the second.

E14D and E14S are within error of each other in abundance fitness: -0.533 ± 0.39 for the first, -0.358 ± 0.13 for the second.

F61L and F61P are within error of each other in abundance fitness: 0.036 ± 0.12 for the first, 0.202 ± 0.13 for the second.

F61G and F61R are within error of each other in abundance fitness: -0.466 ± 0.092 for the first, -0.422 ± 0.1 for the second.

F61N and L19E are within error of each other in abundance fitness: -0.275 ± 0.29 for the first, -0.447 ± 0.32 for the second.

A8L and A8Q are within error of each other in abundance fitness: -0.318 ± 0.38 for the first, 0.182 ± 0.3 for the second.

A8V and A8G are within error of each other in abundance fitness: 0.083 ± 0.25 for the first, -0.148 ± 0.14 for the second.

First: G28R
Second: E12V
The abundance fitness of the first is lower: -0.555 ± 0.13 for the first, -0.065 ± 0.097 for the second.

E12I and E12H are within error of each other in abundance fitness: -0.112 ± 0.29 for the first, -0.051 ± 0.4 for the second.

S47R and L27Q are within error of each other in abundance fitness: -0.469 ± 0.15 for the first, -0.602 ± 0.24 for the second.

Compared with L27P, K44S is lower in abundance fitness: -0.274 ± 0.2 for the first, -0.805 ± 0.33 for the second.

K44P and K44G are within error of each other in abundance fitness: -0.3 ± 0.15 for the first, -0.382 ± 0.079 for the second.

K7S and K7C are within error of each other in abundance fitness: -0.05 ± 0.063 for the first, -0.132 ± 0.086 for the second.

K7G and K7I are within error of each other in abundance fitness: -0.193 ± 0.055 for the first, -0.391 ± 0.22 for the second.

D79S and D79C are within error of each other in abundance fitness: -0.374 ± 0.22 for the first, -0.509 ± 0.35 for the second.

D79Y and P69V are within error of each other in abundance fitness: -0.505 ± 0.49 for the first, -0.414 ± 0.099 for the second.

P69H and P69K are within error of each other in abundance fitness: -0.208 ± 0.28 for the first, -0.304 ± 0.18 for the second.

P69Q and P69L are within error of each other in abundance fitness: -0.618 ± 0.43 for the first, -0.351 ± 0.13 for the second.

L41G and L41D are within error of each other in abundance fitness: -0.934 ± 0.31 for the first, -0.244 ± 0.46 for the second.

K73S and K73M are within error of each other in abundance fitness: -0.659 ± 0.18 for the first, -0.799 ± 0.28 for the second.

K73Y and K73C are within error of each other in abundance fitness: -0.595 ± 0.37 for the first, -0.397 ± 0.17 for the second.

A56D and A56E are within error of each other in abundance fitness: 0.18 ± 0.13 for the first, 0.067 ± 0.09 for the second.

First: F46L
Second: F46S
The abundance fitness of the first is higher: 0.211 ± 0.083 for the first, -0.553 ± 0.28 for the second.

K11W and K11V are within error of each other in abundance fitness: -0.198 ± 0.13 for the first, -0.21 ± 0.12 for the second.

First: K11I
Second: D33V
The abundance fitness of the first is higher: 0.062 ± 0.33 for the first, -1.19 ± 0.42 for the second.

V40L and V40N are within error of each other in abundance fitness: -0.045 ± 0.13 for the first, 0.028 ± 0.28 for the second.

Going from V40C to K21A, the abundance fitness falls from 0.354 ± 0.23 to -0.392 ± 0.19.

Q48K and A17P are within error of each other in abundance fitness: 0.079 ± 0.31 for the first, -0.357 ± 0.45 for the second.

Q10C and Q10S are within error of each other in abundance fitness: -0.477 ± 0.29 for the first, -0.111 ± 0.097 for the second.

Q10T and Q10P are within error of each other in abundance fitness: -0.184 ± 0.18 for the first, -0.214 ± 0.17 for the second.

L57P and L70F are within error of each other in abundance fitness: -0.005 ± 0.22 for the first, 0.145 ± 0.26 for the second.

L70C and L70R are within error of each other in abundance fitness: -0.171 ± 0.29 for the first, -0.653 ± 0.21 for the second.

Q4H and Q4I are within error of each other in abundance fitness: -0.051 ± 0.4 for the first, -0.309 ± 0.24 for the second.

L71F and L71H are within error of each other in abundance fitness: -0.562 ± 0.29 for the first, -0.207 ± 0.24 for the second.

First: L59E
Second: L59A
The abundance fitness of the first is higher: 0.101 ± 0.17 for the first, -0.81 ± 0.35 for the second.

Compared with R68V, A32E is higher in abundance fitness: -0.609 ± 0.18 for the first, -0.024 ± 0.15 for the second.

V34I and V34T are within error of each other in abundance fitness: -0.031 ± 0.35 for the first, -0.797 ± 0.47 for the second.

V34Q and V34A are within error of each other in abundance fitness: -0.231 ± 0.32 for the first, -0.742 ± 0.29 for the second.

G43N and G43S are within error of each other in abundance fitness: -0.341 ± 0.37 for the first, -0.651 ± 0.46 for the second.

Compared with F42K, F42S is higher in abundance fitness: -0.262 ± 0.098 for the first, -0.055 ± 0.075 for the second.

First: F42Y
Second: F42I
The abundance fitness of the first is higher: -0.028 ± 0.27 for the first, -0.49 ± 0.19 for the second.

F42W and F42D are within error of each other in abundance fitness: -0.165 ± 0.08 for the first, -0.481 ± 0.31 for the second.

Going from F42P to E1M, the abundance fitness rises from -0.654 ± 0.15 to 0.273 ± 0.15.

First: E1V
Second: E1R
The abundance fitness of the first is lower: -0.45 ± 0.16 for the first, 0.064 ± 0.14 for the second.

R53G and R53A are within error of each other in abundance fitness: -0.421 ± 0.16 for the first, -0.06 ± 0.21 for the second.

R53E and K23R are within error of each other in abundance fitness: -0.078 ± 0.16 for the first, 0.059 ± 0.12 for the second.

Q58A and N63L are within error of each other in abundance fitness: -0.5 ± 0.21 for the first, -0.336 ± 0.2 for the second.

Compared with N63K, G39T is lower in abundance fitness: 0.172 ± 0.23 for the first, -0.613 ± 0.28 for the second.

W74V and W74D are within error of each other in abundance fitness: -0.264 ± 0.3 for the first, -0.447 ± 0.28 for the second.

Q31D and T26E are within error of each other in abundance fitness: -0.126 ± 0.33 for the first, 0.04 ± 0.27 for the second.

T26K and Q72V are within error of each other in abundance fitness: -0.414 ± 0.36 for the first, -0.337 ± 0.13 for the second.

Q72D and M64V are within error of each other in abundance fitness: -0.379 ± 0.24 for the first, -0.675 ± 0.15 for the second.

M64N and M64Q are within error of each other in abundance fitness: -0.608 ± 0.23 for the first, -0.802 ± 0.23 for the second.

M64A and K62Q are within error of each other in abundance fitness: -0.251 ± 0.11 for the first, 0.046 ± 0.24 for the second.

Compared with K62D, T37P is lower in abundance fitness: 0.201 ± 0.17 for the first, -0.621 ± 0.33 for the second.

V45N and V45A are within error of each other in abundance fitness: 0.001 ± 0.25 for the first, 0.127 ± 0.049 for the second.

V45C and V45S are within error of each other in abundance fitness: -0.101 ± 0.093 for the first, 0.012 ± 0.077 for the second.

In the case of V45P, the abundance fitness is reported as 0.12 ± 0.077.
